Measured values as given in patent US5973110A, “Cytotoxic T-lymphocyte antigen as cysteine protease inhibitor” (Bayer Corporation, priority 1995, dated 1999).
No end group written: not given here.

Assays:
[1] = test system: cartilage proteoglycan degradation; conditions: at 100 uM concentrations; cited from earlier work
human liver Cathepsin L [2] = molecular target: T1, human liver Cathepsin L (Homo sapiens, UniProt P07711); experiment: Cathepsin L assay (fluorescence, Z-Phe-Arg-AMC hydrolysis); type: biochemical; design: from tissue; b54 says 'human kidney cell cathepsins'
Target sequence in this assay (P07711 114-288 limits assumed): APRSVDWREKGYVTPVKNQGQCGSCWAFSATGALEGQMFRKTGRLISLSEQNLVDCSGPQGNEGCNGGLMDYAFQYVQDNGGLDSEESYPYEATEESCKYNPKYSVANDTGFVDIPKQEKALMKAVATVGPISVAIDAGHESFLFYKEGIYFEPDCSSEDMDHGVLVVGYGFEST
Target sequence in this assay (P07711 292-333 limits assumed): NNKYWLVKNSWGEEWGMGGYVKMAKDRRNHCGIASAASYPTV
Experimental: A fluorescence based assay was set up according to Barrett and Kirschke (Barrett et al., 1981, Meth. in Enz., 80:535).
After an incubation period of 6 minutes at room temperature, 1500 μl of 0.1% Brij 35 was added. The substrate Z-Phe-Arg-AMC (AMC is aminomethyl-coumarin) was added at a final concentration of either 2.5 μM or 5.0 μM.
The fluorescence of the free aminomethyl-coumarin was measured in an SLM 4800s fluorimeter by excitation at 370 nm and emission at 432 nm over a six minute time period. […] In order to calculate the velocities, a linear least squares analysis was performed over the initial linear part of the data. […]
These peptides were tested for inhibition of Cathepsin L activity using the assays described previously. Briefly, Cathepsin L (19 pM final as determined by active site titration using E-64, Barret & Kirschke, 1991) was added to 750 uL of assay buffer consisting of 340 nM sodium acetate--60 mM acetic acid (pH 5.5), 4 mM disodium EDTA, and 8 mM DTT. […] The fluorescence of the free aminomethylcoumarin was measured in an SLM 4800s fluorimeter at excitation of 370 nm and an emission at 432 nm over a 6 minute time period. Fluorescence was converted to uM AMC released by using a standard curve generated by plotting uM AMC vs. fluorescence, and plotted vs. time. […]

[3] = test system: articular cartilage explants from calf knee joints; experiment: Micro organ culture assay (MOCA): IL-1 induced proteoglycan release from articular cartilage explants; type: cell-based; conditions: IL-1 induced degradation; p117 10 uM (best concentration)
Excerpt: The assay system used for testing the peptides for inhibitory activity of proteoglycan release is a micro organ culture assay (MOCA). Papain; cetyl pyridinium chloride and chondroitin sulfate type C was purchased from Sigma Chemical Co. (St. Louis, Mo.). Interleukin 1 alpha was purchased from Collaborative Research. ABCase, chrondroitinase, ABC lyase, and keratanase were obtained from ICI. Na ^35 SO4 was purchased from NEN.
Articular cartilage explants from calf knee joints were maintained in culture in DMEM medium containing 20 uCi/ml Na ^35 SO4 for 48 hours for the incorporation of label into newly synthesized proteoglycan (PG). The radiolabelled medium was then removed, the radiolabelled explants washed 3×30 ml cold DMEM and placed into a 96 well plate with or without IL-1 (Interleukin-1 alpha, 50 U/ml) and various concentrations of p117. The explants were incubated first for 24 hours in the presence of IL-1 in order to ensure initiation of IL-1 induced auto-catalysis prior to the addition of various metalloprotease inhibitors for an additional 72 hours.
The newly synthesized radiolabelled proteoglycans released during the cultivation period were subjected to enzymatic digestion with papain. […] The filter was dried and counted after addition of 10 mls of scintillation cocktail (scintillant).

human liver Cathepsin L [4] = molecular target: T1, human liver Cathepsin L
human liver Cathepsin L [5] = molecular target: T1, human liver Cathepsin L; remark: listed apart in the source
human liver Cathepsin L [6] = molecular target: T1, human liver Cathepsin L; remark: listed apart in the source
cartilage degradation = conditions: rabbits, IL-1 injected into joint capsule; cited from earlier work

## CC(C)C[C@H](NC(=O)[C@H]1O[C@@H]1C(=O)O)C(=O)NCCCCN=C(N)N (relative stereo) [E64, trans-epoxysuccinyl-L-leucylamido-(4-guanido)butane]
[1]
  inhibition of IL-1 stimulated cartilage proteoglycan degradation (in words): did not work

## CC(C)CCNC(=O)[C@H](CC(C)C)NC(=O)[C@H]1O[C@@H]1C(=O)O [Ep475]
[1]
  inhibition of IL-1 stimulated cartilage proteoglycan degradation (in words): did not work

## YSLDEERHRRLMWEENKKKIEAH [p117]
Human liver Cathepsin L [2]; Cathepsin L 19 pM, 5.0 uM Z-Phe-Arg-NMec(AMC), Dixon plot V-/V+ vs. peptide concentration, read-out: i.c. 50 (synthetic peptides, Cathepsin L)
  IC50: 5.3 µM
Human liver Cathepsin L [2]; summary in Example 7
  inhibitory activity of the peptides (in words): best activity
[3]
  % inhibition of proteoglycan release: about 30%

## recombinant (murine) CTLA-2β, dimeric form
Human liver Cathepsin L [4]
  i.c. 50 in Cathepsin L Assay: 1.1 nM

## recombinant (murine) CTLA-2β, monomeric form
Human liver Cathepsin L [4]
  i.c. 50 in Cathepsin L Assay: 18.2 nM
Human liver Cathepsin L [5]
  inhibition of hydrolysis of Z-Phe-Arg-AMC by Cathepsin L (fluorescence): 60%

B1: p117 (peptide)
peptide: YSLDEERHRRLMWEENKKKIEAH
Human liver Cathepsin L [6]
  i.c. 50: 5.3 µM

B2: p089 (peptide)
peptide: ENKKKIEAHNADYERGKTSFC
Human liver Cathepsin L [6]
  inhibition of hydrolysis of Z-Phe-Arg-NMec(AMC) by Cathepsin L (fluorescence) (% inhibition at 10 uM): 25

B3: p092 (peptide)
peptide: CRGEMAPDLPEYEDLG
Human liver Cathepsin L [6]
  i.c. 50: 41 µM

B4: PN-1: large serine protease inhibitor PN-1 (43 KD) (protein, UniProt P07093 20-398, looked up)
Glia-derived nexin: SHFNPLSLEELGSNTGIQVFNQIVKSRPHDNIVISPHGIASVLGMLQLGADGRTKKQLAMVMRYGVNGVGKILKKINKAIVSKKNKDIVTVANAVFVKNASEIEVPFVTRNKDVFQCEVRNVNFEDPASACDSINAWVKNETRDMIDNLLSPDLIDGVLTRLVLVNAVYFKGLWKSRFQPENTKKRTFVAADGKSYQVPMLAQLSVFRCGSTSAPNDLWYNFIELPYHGESISMLIALPTESSTPLSAIIPHISTKTIDSWMSIMVPKRVQVILPKFTAVAQTDLKEPLKVLGITDMFDSSKANFAKITTGSENLHVSHILQKAKIEVSEDGTKASAATTAILIARSSPPWFIVDRPFLFFIRHNPTGAVLFMGQINKP
Cartilage degradation
  effect on IL-1 induced cartilage degradation (in words): can ameliorate this degradation
